T1: His-labeled kinase domain of CEPR2 (CEPR2^KD-His, amino acids 642–977) (Arabidopsis thaliana, UniProt Q9C7T7 642-977)
T1 sequence: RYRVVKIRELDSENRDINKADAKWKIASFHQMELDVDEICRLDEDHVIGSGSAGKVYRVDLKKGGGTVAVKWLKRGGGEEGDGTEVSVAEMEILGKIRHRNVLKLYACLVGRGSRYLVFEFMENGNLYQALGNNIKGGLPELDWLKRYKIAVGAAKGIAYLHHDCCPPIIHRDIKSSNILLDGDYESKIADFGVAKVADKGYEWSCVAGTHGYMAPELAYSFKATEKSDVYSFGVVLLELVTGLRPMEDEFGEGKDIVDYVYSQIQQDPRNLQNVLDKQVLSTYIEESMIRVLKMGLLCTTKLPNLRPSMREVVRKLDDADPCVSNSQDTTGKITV


Molecular target: T1, His-labeled kinase domain of CEPR2 …
Assay: pull-down

Binder	binding result
GST-tagged PYL2 (PYL2–GST) (receptor) MSSSPAVKGLTDEEQKTLEPVIKTYHQFEPDPTTCTSLITQRIHAPASVVWPLIRRFDNPERYKHFVKRCRLISGDGDVGSVREVTVISGLPASTSTERLEFVDDDHRVLSFRVVGGEHRLKNYKSVTSVNEFLNQDSGKVYTVVLESYTVDIPEGNTEEDTKMFVDTVVKLNLQKLGVAATSAPMHDDE	binds
GST-tagged PYL4 (PYL4–GST) (receptor) MLAVHRPSSAVSDGDSVQIPMMIASFQKRFPSLSRDSTAARFHTHEVGPNQCCSAVIQEISAPISTVWSVVRRFDNPQAYKHFLKSCSVIGGDGDNVGSLRQVHVVSGLPAASSTERLDILDDERHVISFSVVGGDHRLSNYRSVTTLHPSPISGTVVVESYVVDVPPGNTKEETCDFVDVIVRCNLQSLAKIAENTAAESKKKMSL	binds

Source: paper PMC6793440 (Journal of Experimental Botany, 2019)
